# Test results taken from patent US20220002432A1 (VIRTUOSO BINCO, published 2022).
# Changes are numbered by the printed parent chain.
# T1: Rhesus-ICAM1 (rhesus, UniProt Q5NKV6 28-480, limits assumed)
# T1 sequence (looked up): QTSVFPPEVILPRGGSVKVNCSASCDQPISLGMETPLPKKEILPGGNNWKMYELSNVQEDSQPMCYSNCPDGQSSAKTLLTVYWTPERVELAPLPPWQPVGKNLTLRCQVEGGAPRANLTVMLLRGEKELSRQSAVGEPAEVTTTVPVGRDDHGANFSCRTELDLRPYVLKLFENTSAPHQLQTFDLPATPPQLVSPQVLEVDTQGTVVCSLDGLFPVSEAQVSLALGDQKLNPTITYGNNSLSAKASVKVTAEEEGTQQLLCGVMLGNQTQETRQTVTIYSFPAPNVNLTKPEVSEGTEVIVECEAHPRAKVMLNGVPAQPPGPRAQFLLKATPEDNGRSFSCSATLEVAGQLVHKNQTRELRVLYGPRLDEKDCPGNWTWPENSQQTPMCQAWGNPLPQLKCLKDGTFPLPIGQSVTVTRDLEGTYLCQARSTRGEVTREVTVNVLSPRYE
# B1: 8H1 (antibody, human IgG1, kappa, V domains shown)
# VH: QSVEESGGRLVTPGTPLTLTCTASGFSLSNYYMSWVRQAPGKGLEWIGIISDSGSTYYASWAKGRFTISKTSTTVDLKITSPTTEDTATYFCARDWSYDSSSGYYYYDMDLWGPGTLVTVSA
# VL: GYDMTQTPASVEVAVGGTVTIKCQASQSINSWLAWFQHKPGQPPKRLIYKASTLASGVSSRFKGSGSGTQFTLTISGVESADAATYYCQQGYSRSDGEHVFGGGTEVVVKR
# notes: Rabbit-human chimeric anti-ICAM1: rabbit VH and VL on human IgG1 and kappa constant regions
# B2: 4H5 (antibody, human IgG1, kappa, V domains shown)
# VH: B1 VH with S55T
# VL: B1 VL with A34V, Q70H
# notes: as for B1
# B3: 14H1 (antibody, human IgG1, kappa, V domains shown)
# VH: B1 VH with A23V, K78S, S101T
# VL: B1 VL with G1A, A34S, Q37H, H38Q
# notes: as for B1
# B4: 15D10 (antibody, human IgG1, kappa, V domains shown)
# VH: B1 VH with S29N, G54D, S55N, Y98L
# VL: B1 VL with G1A, V11M, S28N, N30H, H38Q, S59P, E79Q, A81D
# notes: as for B1
# B5: 11G7 (antibody, human IgG1, kappa, V domains shown)
# VH: QSVEESGGRLVTPGTPLTLTCTVSGFSLSDYYMSWVRQAPGKGLEWIGIISDSGSTYYASWAKGRFTISKTSSTTVDLKITSPTTEDTATYFCARDWSYDSSSGYYYYDMDLWGPGTLVTVSA
# VL: B1 VL with G1A, A34S, Q37H, H38Q
# notes: as for B1
# B6: 11F2 (antibody, human IgG1, kappa, V domains shown)
# VH: QSVEESGGGLVKPGGTLTLTCTVSGFSLSSHAMGWVRQAPGKGLEYIGIIGSSDRTYYASWAKGRFTISKTSTTVDLKITSPTTEDTATYFCVRDPYDSYDDGYRLWGPGTLVTVSS
# VL: AYDMTQTPASVEVAVGGTVTIKCQASQSIYRYLSWYQKKPGQRPKFLIYDASKLASGVPSRFEGSGSGTEFTLTISGAQSDDAATYYCQQAYSSGSIDNAFGGGTEVVVKR
# notes: as for B1
# B7: 8B12 (antibody, human IgG1, kappa, V domains shown)
# VH: B6 VH with S30T, Y100F
# VL: B6 VL with R31S, K38Q, L54V, E63K, G77A, A78V, G95S, S96N, I97V, V108M
# notes: as for B1
# B8: 16E4 (antibody, human IgG1, kappa, V domains shown)
# VH: QSVEESGGRLVTPGTPLTLTCTVSGFSLSSHAMGWVRQAPGKGLQYIGIIGSSGSTYYASWAKGRFTISKTSTTVDLRLTSPTTEDTATYFCVRDPYDSFGDAYRLWGPGTLVTVSS
# VL: B6 VL with R31S, L33C, K38Q, E63K, A78M, G95S, S96N, I97V
# notes: as for B1
# B9: 5B12 (antibody, human IgG1, kappa, V domains shown)
# VH: QSLEESGGRLVTPGTPLTLTCTVSGFSLSSYGMSWVRQAPGKGLEYIGWISFSGSAYYANWAKGRFTISKTSTTVDLKITSPTTEDTATYFCARGGDYGGSTYILNLWGPGTLVTVSS
# VL: AFELTQTPSSVEAAVGGTVTIKCQASESIDSYLSWYQQKPGQPPKLLIYAASTLASGVSSRFKGSGSGTEFTLTISDLESADAATYYCQSYSGTITTSGGAFGGGTEVVVKR
# notes: as for B1
# Target: T2, ICAM1 on the surface of DU145 cells (human, UniProt P05362 28-532)
# T2 construct: whole, on cells
# T2 sequence (P05362 28-532): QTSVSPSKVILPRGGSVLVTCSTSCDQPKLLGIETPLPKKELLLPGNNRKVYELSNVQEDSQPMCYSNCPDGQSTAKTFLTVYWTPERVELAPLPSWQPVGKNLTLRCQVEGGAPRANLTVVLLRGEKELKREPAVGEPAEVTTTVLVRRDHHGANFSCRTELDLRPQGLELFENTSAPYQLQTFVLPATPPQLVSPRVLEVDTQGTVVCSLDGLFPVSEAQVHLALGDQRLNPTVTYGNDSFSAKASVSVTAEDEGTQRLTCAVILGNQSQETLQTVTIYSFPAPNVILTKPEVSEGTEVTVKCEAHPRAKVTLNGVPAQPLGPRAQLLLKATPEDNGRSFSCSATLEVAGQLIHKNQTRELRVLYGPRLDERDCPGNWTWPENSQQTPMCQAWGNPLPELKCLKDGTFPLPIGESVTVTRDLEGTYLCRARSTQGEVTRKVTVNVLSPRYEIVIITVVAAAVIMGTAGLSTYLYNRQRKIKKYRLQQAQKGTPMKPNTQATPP
# Experiment: flow cytometry, DU145 cells;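 also: purified antibodies in dilution series bound to cells for 1 h at 4 °C, detected with a fluorescent secondary antibody (1 h, 4 °C, dark), read by flow cytometry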
Binder,EC50 [nM],Max Binding MFI [MFI]
B1,1.82,5270
B2,1.31,4720
B3,0.591,4690
B4,0.879,5000
B5,1.04,4820
B6,1.31,4060
B7,1.02,3750
B8,1.45,3700
B9,0.113,5940

# Target: T3, recombinant human ICAM1 (human, UniProt P05362 28-480, limits assumed)
# T3 sequence (P05362 28-480 limits assumed): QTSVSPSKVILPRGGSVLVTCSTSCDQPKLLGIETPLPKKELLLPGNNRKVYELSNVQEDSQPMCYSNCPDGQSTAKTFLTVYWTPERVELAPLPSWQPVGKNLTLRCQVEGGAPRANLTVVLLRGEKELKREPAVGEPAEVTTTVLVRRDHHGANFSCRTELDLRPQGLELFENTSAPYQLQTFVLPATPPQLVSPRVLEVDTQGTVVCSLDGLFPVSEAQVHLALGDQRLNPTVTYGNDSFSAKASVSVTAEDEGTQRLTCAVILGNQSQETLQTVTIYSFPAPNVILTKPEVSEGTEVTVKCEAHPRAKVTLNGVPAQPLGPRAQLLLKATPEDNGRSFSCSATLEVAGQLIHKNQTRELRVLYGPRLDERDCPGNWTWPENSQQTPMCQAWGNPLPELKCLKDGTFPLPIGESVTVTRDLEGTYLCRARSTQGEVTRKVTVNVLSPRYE
# Experiment: SPR (Biacore 8K), antibody captured, antigen injected
# Procedure: (§1) The binding kinetics of the anti-CD38 and anti-ICAM1 antibodies were evaluated on a Biacore 8K instrument (GE Healthcare). Biacore Series S CM5 sensor chips were immobilized with monoclonal mouse anti-human IgG (Fc) antibody (human antibody capture kit from GE Healthcare). Antibodies were captured on each flow cell. Serial 3-fold dilutions of each antigen were injected at a flow rate of 30 μl/min. Each sample was analyzed with 1 min association and 10 min dissociation at room temperature (25° C.). After each injection, the chip was regenerated using 3M MgCl₂. A 1:1 Langmuir model of simultaneous fitting of kₒₙ and koff was used for kinetics analysis.
Binder,Kd [nM],koff [s⁻¹],kon [M⁻¹ s⁻¹]
B1,3.1,0.000345,111000
B2,3.39,0.000256,75600
B3,1.62,0.000237,146000
B4,2.12,0.000181,85500
B5,2.65,0.000271,103000
B6,0.29,0.000131,456000
B7,0.26,0.000115,442000
B8,0.57,0.000134,237000
B9,2.74,0.000584,213000

# Target: T1, Rhesus-ICAM1
# Experiment: as above
# Procedure: as §1
Binder,Kd [nM],koff [s⁻¹],kon [M⁻¹ s⁻¹]
B1,2.92,0.00125,427000
B2,4.11,0.000568,138000
B3,2.25,0.000434,193000
B4,1.79,0.000421,236000
B5,4.28,0.000624,146000
B6,0.25,0.000224,914000
B7,0.88,0.000658,746000
B8,0.54,0.000277,517000
B9,8.2,0.00218,266000

# Target: T3, recombinant human ICAM1
# Experiment: ELISA: plate coated with 1 ug/ml recombinant human ICAM1 ECD, serially diluted antibody, OD450
# Procedure: (§2) The plate was coated overnight at 4° C. with 1 μg/ml recombinant CD38 or ICAM1. After washing 3 times, the plate was blocked with 300 μl 1% BSA in PBST at 37° C. for 1 hour. Serially diluted antibodies were added and incubated at 37° C. for 1 hour. The plate was then washed 4 times with PBST and incubated with 1:5000 diluted 2nd antibody (Sigma, Cat #A0293) at 37° C. for 1 hour.
row,Binder,EC50 (read off the curve) [nM]
1,B1,~0.04
2,B2,~0.04
3,B3,~0.04
4,B4,~0.04
5,B5,~0.04
6,B6,~0.04
7,B7,~0.04
8,B8,~0.04
9,B9,~0.04

# Target: T1, Rhesus-ICAM1
# Experiment: ELISA: plate coated with 1 ug/ml recombinant rhesus ICAM1 ECD, serially diluted antibody, OD450
# Procedure: as §2
row,Binder,EC50 (read off the curve) [nM]
1,B1,~0.04
2,B2,~0.04
3,B3,~0.04
4,B4,~0.04
5,B5,~0.04
6,B6,~0.04
7,B7,~0.04
8,B8,~0.04
9,B9,~0.04
